Data taken from PMC11876641, “Ephrin A1 functions as a ligand of EGFR to promote EMT and metastasis in gastric cancer” (The EMBO Journal, 2025).

Biological target: T1, EGFR protein (UniProt P00533 25-645)
T1 construct: EGFR; source: bought: R&D Systems (1095-ER)
Assay: pull-down; Fc fusion protein and its partner incubated in lysis buffer overnight at 4 °C; Protein A/G magnetic beads; both orientations (N-EGFR-Fc with Ephrin A1; Ephrin A1-Fc with EGFR protein)
Settings: both partners purified

binding result: binds
B1: Ephrin A1-Fc protein (Fc fusion, UniProt P20827 19-182, looked up)
chain: DRHTVFWNSSNPKFRNEDYTIHVQLNDYVDIICPHYEDHSVADAAMEQYILYLVEHEEYQLCQPQSKDQVRWQCNRPSAKHGPEKLSEKFQRFTPFTLGKEFKEGHSYYYISKPIHQHEDRCLRLKVTVSGKITHSPQAHDNPQEKRLAADDPEVRVLHSIGHS
notes: Ephrin A1; source: bought: R&D Systems (6417-A1)
